# Ends that are not written are not given here. Ama = amidomalonate chelating group bound to Pt
# Legend:
# [1] = Release of small molecule Pt species from polymer-linker-Pt complexes at 37° C. in PBS; type: physicochemical; settings: for Percent small platinum released from 1R,2R-DACH Pt(II) complex at 37° C. in PBS, 3 hours / Percent small platinum released from 1R,2R-DACH Pt(II) complex at 37° C. in PBS, 24 hours: 1R,2R-DACH stable chelate; for Percent small platinum released from cis-diammine Pt(II) complex at 37° C. in PBS, 3 hours / Percent small platinum released from cis-diammine Pt(II) complex at 37° C. in PBS, 24 hours: cis-diammine stable ligands
# Source text: The compound tested comprised a poly(N-(2-hydroxypropyl)methacrylamide (10%)-co-methacrylamide (90%)) backbone polymer and either cis-diammine or 1R,2R-diaminocyclohexane (DACH) as the stable ligands/chelate of the Pt complex. The leaving-ligand comprised an N,O bidentate ligand with amidoaspartate (Asp) or amidomalonate (Ama).
# [2] = 27° C.; cited from earlier work
# [3] = Relative toxicity of Compound 1 made by two different processes, body weight in mice; type: in vivo, Female C57BL/6 mice; settings: murine study; new process versus process of U.S. Pat. No. 7,166,733
# Description: Biological evaluation can be carried out with the methods as described below.
# Female C57BL/6 mice were randomized into 7 groups of 5 mice each. Each mouse was identified by ear notch and followed individually throughout the study. Animals were observed and weighed prior to dosing for establishment of dosing volumes. All mice were dosed by a single IP injection with either a) Compound 1 made by the processes described herein, b) Compound 1 made by the process described in U.S. Pat. No. 7,166,733, or c) vehicle control. Three doses of each compound were tested: 75 mg Pt/kg, 100 mg Pt/kg and 150 mg Pt/kg. Test compounds were dissolved in isotonic glucose and administered in a volume of 0.4 mL per 20 g body weight. Gross observations and body weights were recorded daily for 14 days. Percent body weight change for each animal on each day was calculated as the percent change from their body weight recorded on day 1 just prior to injection of compounds.
molecule,measurement,setting,value
Gly-Phe-Leu-Gly-Asp=Pt= (GFLGD; also: Pt conjugation (Asp=Pt=)),"Percent small platinum released from 1R,2R-DACH Pt(II) complex at 37° C. in PBS, 3 hours",[1],2.0%
same,"Percent small platinum released from 1R,2R-DACH Pt(II) complex at 37° C. in PBS, 24 hours",[1],6.5%
same,"Percent small platinum released from cis-diammine Pt(II) complex at 37° C. in PBS, 3 hours",[1],1.5%
same,"Percent small platinum released from cis-diammine Pt(II) complex at 37° C. in PBS, 24 hours",[1],4.7%
"NC1CCCCC1N.O.O.O=[N+]([O-])[O-].O=[N+]([O-])[O-].[Pt+2] (stereo not drawn) [diaqua platinum species, 1R,2R-DACH-diaquaplatinum (II) dinitrate]",pKa1,[2],5.4
same,pKa2,[2],7.2
poly(HPMA)-GGG-Ama=PtDACH [Compound 1],safety profile,[3],safety profile identical to that of Compound 1 made by the processes described previously
Gly-Phe-Leu-Gly-Ama=Pt= (GFLG-Ama; also: Pt complex via Ama (=Pt=)),"Percent small platinum released from 1R,2R-DACH Pt(II) complex at 37° C. in PBS, 3 hours",[1],0.7%
same,"Percent small platinum released from 1R,2R-DACH Pt(II) complex at 37° C. in PBS, 24 hours",[1],2.4%
same,"Percent small platinum released from cis-diammine Pt(II) complex at 37° C. in PBS, 3 hours",[1],0.7%
same,"Percent small platinum released from cis-diammine Pt(II) complex at 37° C. in PBS, 24 hours",[1],2.1%

# From patent US20110286958A1, “HPMA POLYMER PLATINUM CHELATES” (Access Pharmaceuticals, Inc., priority 2010, published 2011)
